Assay results reported in paper PMC10518940.

Biological target: T1, HA-CXCR4-Rluc8 (human), P61073
T1 chain: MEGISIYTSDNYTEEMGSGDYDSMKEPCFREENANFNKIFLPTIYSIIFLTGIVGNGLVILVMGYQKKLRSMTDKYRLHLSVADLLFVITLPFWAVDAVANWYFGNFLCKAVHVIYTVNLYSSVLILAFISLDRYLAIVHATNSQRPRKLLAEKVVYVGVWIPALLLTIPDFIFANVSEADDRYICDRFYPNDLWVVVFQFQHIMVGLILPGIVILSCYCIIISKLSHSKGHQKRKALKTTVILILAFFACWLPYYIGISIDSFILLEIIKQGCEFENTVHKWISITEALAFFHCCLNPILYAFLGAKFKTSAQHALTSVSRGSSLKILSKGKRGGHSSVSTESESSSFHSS
Experiment: FRET or BRET; BRET2 saturation in HEK293A cells: fixed amount of GPCR-Rluc8 plasmid, increasing amounts of GPCR-GFP2 plasmid (0 to 390 ng); coelenterazine 400a 5 μM; BRET50 from the net BRET ratio
Conditions: remark: other sources report otherwise

B1: CXCR4-GFP2, P61073 1-352 (receptor)
chain: T1 chain
- BRET50: 0.244
